*1 amine or outer side, *2 acyl side, *3 side chain or, on linkers, in order; H or OH if unused. Where no end group is shown, it is not given here. Side-chain parts run from the residue outwards. [ ]: non-standard residue; d: D form. The star is where a group is joined. Decanoyl(10-(4-HOOC-PhO)) = O=C(O)c1ccc(OCCCCCCCCCC(=O)*)cc1; γGlu = O=C(O)[C@H](CCC(=O)[*:2])N[*:1]; C12 diacid = O=C(O)CCCCCCCCCCC(=O)*; 13‑carboxytridecanoyl = C14 diacid; AEEA = NCCOCCOCC(=O)O; Aib = CC(C)(N)C(=O)O
B1: GLP-1 derivative of Example 107: [Lys18,Val25,Arg26,Lys31,Arg34]-GLP-1-(7-37)-peptide (peptide)
peptide: HAEGTFTSDVSK([AEEA-AEEA-γGlu-Decanoyl(10-(4-HOOC-PhO))])YLEGQAVREFIAK([AEEA-AEEA-γGlu-Decanoyl(10-(4-HOOC-PhO))])LVRGRG
B2: GLP-1 derivative of Example 106: [Lys18,Arg34]-GLP-1-(7-37)-peptide (peptide)
peptide: HAEGTFTSDVSK([γGlu-AEEA-AEEA-Decanoyl(10-(4-HOOC-PhO))])YLEGQAAK([γGlu-AEEA-AEEA-Decanoyl(10-(4-HOOC-PhO))])EFIAWLVRGRG
B3: GLP-1 derivative of Example 120: [Lys18,Lys22,Arg26,Gln34]-GLP-1-(7-37)-peptide (peptide)
peptide: HAEGTFTSDVSK([AEEA-AEEA-γGlu-2‑(4-(4-fluorophenoxy)phenyl)acetyl])YLEK([AEEA-AEEA-γGlu-2‑(4-(4-fluorophenoxy)phenyl)acetyl])QAAREFIAWLVQGRG
B4: GLP-1 derivative of Example 124: [Lys18,Glu22,Val25,Arg26,Lys31,Arg34]-GLP-1-(7-37)-peptide (peptide)
peptide: HAEGTFTSDVSK([AEEA-AEEA-γGlu-C12 diacid])YLEEQAVREFIAK([AEEA-AEEA-γGlu-C12 diacid])LVRGRG
B5: GLP-1 derivative of Example 2: [Aib8,Lys18,Glu22,Gln34]-GLP-1-(7-37)-peptide (peptide)
peptide: H[Aib]EGTFTSDVSK([AEEA-AEEA-γGlu-Decanoyl(10-(4-HOOC-PhO))])YLEEQAAK([AEEA-AEEA-γGlu-Decanoyl(10-(4-HOOC-PhO))])EFIAWLVQGRG
B6: GLP-1 derivative of Example 1: [Aib8,Lys18,Glu22,Arg26,Arg34,Lys37]-GLP-1-(7-37)-peptide (peptide)
peptide: H[Aib]EGTFTSDVSK([AEEA-AEEA-γGlu-Decanoyl(10-(4-HOOC-PhO))])YLEEQAAREFIAWLVRGRK([AEEA-AEEA-γGlu-Decanoyl(10-(4-HOOC-PhO))])
B7: GLP-1 derivative of Example 73: [Aib8,Lys18,Glu22,Arg26,Lys31,Arg34]-GLP-1-(7-37)-peptide (peptide)
peptide: H[Aib]EGTFTSDVSK([AEEA-AEEA-γGlu-13‑carboxytridecanoyl])YLEEQAAREFIAK([AEEA-AEEA-γGlu-13‑carboxytridecanoyl])LVRGRG
B8: GLP-1 derivative of Example 68: [Aib8,Lys18,Val26,Lys27,Arg34]-GLP-1-(7-37)-peptide (peptide)
peptide: H[Aib]EGTFTSDVSKYLEGQAAVKFIAWLVRGRG
modifications: not fully specified (residues 12, 21)
notes: also called Chem. 87
B9: GLP-1 derivative of Example 76: [Aib8,Lys18,Glu22,Val25,Arg26,Lys31,Arg34]-GLP-1-(7-37)-peptide (peptide)
peptide: H[Aib]EGTFTSDVSK([AEEA-AEEA-γGlu-Decanoyl(10-(4-HOOC-PhO))])YLEEQAVREFIAK([AEEA-AEEA-γGlu-Decanoyl(10-(4-HOOC-PhO))])LVRGRG
B10: GLP-1 derivative of Example 88: [Aib8,Lys18,Glu22,Arg34]-GLP-1-(7-37)-peptide (peptide)
peptide: H[Aib]EGTFTSDVSK([AEEA-AEEA-γGlu-Decanoyl(10-(4-HOOC-PhO))])YLEEQAAK([AEEA-AEEA-γGlu-Decanoyl(10-(4-HOOC-PhO))])EFIAWLVRGRG
B11: GLP-1 derivative of Example 51: [Aib8,Lys18,Glu22,Arg26,Lys30,Arg34]-GLP-1-(7-37)-peptide (peptide)
peptide: H[Aib]EGTFTSDVSK([AEEA-AEEA-γGlu-13‑carboxytridecanoyl])YLEEQAAREFIK([AEEA-AEEA-γGlu-13‑carboxytridecanoyl])WLVRGRG
B12: GLP-1 derivative of Example 41: [Aib8,Lys18,Glu22,Val25,Arg26,Lys27,Gln34]-GLP-1-(7-37)-peptide (peptide)
peptide: H[Aib]EGTFTSDVSK([AEEA-AEEA-γGlu-Decanoyl(10-(4-HOOC-PhO))])YLEEQAVRK([AEEA-AEEA-γGlu-Decanoyl(10-(4-HOOC-PhO))])FIAWLVQGRG
B13: GLP-1 derivative of Example 3: [Aib8,Lys18,Glu22,Arg26,Lys31,Arg34]-GLP-1-(7-37)-peptide (peptide)
peptide: H[Aib]EGTFTSDVSK([AEEA-AEEA-γGlu-Decanoyl(10-(4-HOOC-PhO))])YLEEQAAREFIAK([AEEA-AEEA-γGlu-Decanoyl(10-(4-HOOC-PhO))])LVRGRG
B14: GLP-1 derivative of Example 74: [Aib8,Lys18,Glu22,Val25,Arg26,Lys31,Arg34]-GLP-1-(7-37)-peptide (peptide)
peptide: H[Aib]EGTFTSDVSK([AEEA-AEEA-γGlu-13‑carboxytridecanoyl])YLEEQAVREFIAK([AEEA-AEEA-γGlu-13‑carboxytridecanoyl])LVRGRG

target: T1, human GLP-1 receptor (human, UniProt P43220 24-463); assay: SPA, displacement of 125I-GLP-1(7-36)NH2, 0.005% HSA
T1 construct: whole, on cells; Used as purified membranes of the transfected hamster cells, not whole cells; also called hGLP-1
Description: (§1) A shift in the binding affinity, $IC50$, is an indication that the derivative in question binds to albumin, and thereby a prediction of a potential protracted pharmacokinetic profile of the derivative in question in animal models.
(§2) 25 ul (microliter) of test compounds are added to Optiplate. HSA ("high albumin" experiment containing 2% HSA), or buffer ("low albumin" experiment containing 0.005% HSA), was added (50 ul). 5-10 µg protein/sample was added (50 ul) corresponding to 0.1-0.2 mg protein/ml (to be preferably optimised for each membrane preparation). SPA-particles (Wheatgerm agglutinin SPA beads, Perkin Elmer, #RPNQ0001) were added in an amount of 0.5 mg/well (50 ul). […] The plates were sealed with PlateSealer and incubated for 120 minutes at 30° C. while shaking. The plates were centrifuged (1500 rpm, 10 min) and counted in Topcounter.

Binder | IC50
B1 | < 1 µM
B2 | < 1 µM
B3 | < 1 µM
B4 | < 1 µM
B5 | < 1 µM
B6 | < 1 µM
B7 | < 1 µM
B8 | < 1 µM
B9 | < 1 µM
B10 | < 1 µM
B11 | < 1 µM
B12 | < 1 µM
B13 | < 1 µM
B14 | < 1 µM

target: T1, human GLP-1 receptor; assay: SPA, 2.0% vs 0.005% HSA
Description: as §1, §2

Binder | ratio IC50 high HSA/IC50 low HSA
B1 | > 1
B2 | > 1
B3 | > 1
B4 | > 1
B5 | > 1
B6 | > 1
B7 | > 1
B8 | > 1
B9 | > 1
B10 | > 1
B11 | > 1
B12 | > 1
B13 | > 1
B14 | > 1

Reference: patent publication US9708383 (Novo Nordisk, dated 2017)
